In patent US20030124152A1:

Target: Human collagen Type I (acid soluble) (human) (UniProt P02452)
Assay: cell-based or functional assay

Sequence of UniProt P02452 (P02452 162-1218 limits assumed, chain 1 of 2): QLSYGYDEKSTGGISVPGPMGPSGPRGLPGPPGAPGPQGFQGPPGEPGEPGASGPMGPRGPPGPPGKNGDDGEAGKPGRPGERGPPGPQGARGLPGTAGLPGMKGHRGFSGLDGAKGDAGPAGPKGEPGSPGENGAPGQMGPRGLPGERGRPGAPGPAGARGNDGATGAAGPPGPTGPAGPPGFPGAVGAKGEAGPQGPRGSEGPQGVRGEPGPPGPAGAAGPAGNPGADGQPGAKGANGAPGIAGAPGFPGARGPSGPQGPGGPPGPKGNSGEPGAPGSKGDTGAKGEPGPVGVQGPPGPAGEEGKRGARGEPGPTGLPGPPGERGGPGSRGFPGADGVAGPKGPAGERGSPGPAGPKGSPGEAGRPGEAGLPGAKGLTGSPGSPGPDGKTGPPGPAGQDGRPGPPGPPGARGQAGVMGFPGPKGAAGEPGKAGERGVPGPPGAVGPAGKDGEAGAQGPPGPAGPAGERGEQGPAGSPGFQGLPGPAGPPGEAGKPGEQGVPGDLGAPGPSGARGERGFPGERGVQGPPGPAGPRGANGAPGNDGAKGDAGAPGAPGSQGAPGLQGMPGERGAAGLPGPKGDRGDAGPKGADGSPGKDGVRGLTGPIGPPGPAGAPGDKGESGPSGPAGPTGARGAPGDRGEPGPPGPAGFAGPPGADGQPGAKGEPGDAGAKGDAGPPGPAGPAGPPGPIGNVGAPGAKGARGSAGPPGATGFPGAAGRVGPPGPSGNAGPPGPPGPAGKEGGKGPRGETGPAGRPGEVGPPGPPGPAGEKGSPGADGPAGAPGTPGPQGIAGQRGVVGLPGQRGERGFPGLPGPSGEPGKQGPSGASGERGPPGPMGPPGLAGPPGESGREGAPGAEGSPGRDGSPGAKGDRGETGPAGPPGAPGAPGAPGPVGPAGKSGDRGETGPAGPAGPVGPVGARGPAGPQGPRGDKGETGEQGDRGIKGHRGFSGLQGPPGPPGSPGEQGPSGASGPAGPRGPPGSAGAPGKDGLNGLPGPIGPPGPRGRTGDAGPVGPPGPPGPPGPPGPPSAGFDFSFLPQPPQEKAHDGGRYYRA
Sequence of UniProt P02452 (P08123 80-1119 limits assumed, chain 2 of 2, further chain): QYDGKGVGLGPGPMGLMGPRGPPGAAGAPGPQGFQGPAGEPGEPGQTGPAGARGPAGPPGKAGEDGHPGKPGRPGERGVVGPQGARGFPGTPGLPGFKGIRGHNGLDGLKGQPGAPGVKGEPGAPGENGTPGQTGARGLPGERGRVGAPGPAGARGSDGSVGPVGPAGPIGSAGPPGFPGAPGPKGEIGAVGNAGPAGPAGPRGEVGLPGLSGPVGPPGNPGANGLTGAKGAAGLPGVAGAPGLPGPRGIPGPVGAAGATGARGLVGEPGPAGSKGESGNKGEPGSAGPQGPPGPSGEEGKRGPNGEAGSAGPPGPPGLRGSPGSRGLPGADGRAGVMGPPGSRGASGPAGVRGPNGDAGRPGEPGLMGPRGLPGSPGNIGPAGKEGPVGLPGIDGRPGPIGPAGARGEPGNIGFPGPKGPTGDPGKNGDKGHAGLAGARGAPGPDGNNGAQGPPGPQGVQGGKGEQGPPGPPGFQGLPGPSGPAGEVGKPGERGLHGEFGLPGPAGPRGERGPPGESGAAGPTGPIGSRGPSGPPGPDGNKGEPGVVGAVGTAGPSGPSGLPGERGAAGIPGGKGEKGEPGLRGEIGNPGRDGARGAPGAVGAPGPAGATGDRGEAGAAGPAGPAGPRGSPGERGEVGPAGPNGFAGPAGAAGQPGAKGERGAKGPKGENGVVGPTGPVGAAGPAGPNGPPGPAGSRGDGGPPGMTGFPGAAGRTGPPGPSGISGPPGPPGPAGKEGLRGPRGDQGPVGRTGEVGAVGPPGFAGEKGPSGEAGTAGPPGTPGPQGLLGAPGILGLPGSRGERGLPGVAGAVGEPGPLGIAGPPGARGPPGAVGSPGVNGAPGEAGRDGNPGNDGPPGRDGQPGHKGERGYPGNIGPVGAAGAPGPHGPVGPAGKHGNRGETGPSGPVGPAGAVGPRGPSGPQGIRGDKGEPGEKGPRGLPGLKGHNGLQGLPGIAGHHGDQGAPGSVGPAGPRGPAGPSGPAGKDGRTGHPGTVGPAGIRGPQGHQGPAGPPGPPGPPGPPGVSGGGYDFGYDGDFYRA

B1: human decorin core protein (HDCP) (protein)
chain: VEASGIGPEVPDDRDFEPSLGPVCPFRCQCHLRVVQCSDLGLDKVPKDLPPDTTLLDLQNNKITEIKDGDFKNLKNLHALILVNNKISKVSPGAFTPLVKLERLYLSKNQLKELPEKMPKTLQELRAHENEITKVRKVTFNGLNQMIVIELGTNPLKSSGIENGAFQGMKKLSYIRIADTNITSIPQGLPPSLTELHLDGNKISRVDAASLKGLNNLAKLGLSFNSISAVDNGSLANTPHLRELHLDNNKLTRVPGGLAEHKYIQVVYLHNNNISVVGSSDFCPPGHNTKKASYSGVSLFSNPVQYWEIQPSTFRCVYVRSAIQLGNYK
modifications: possible initiator Met
Collagen Protection Assay, collagen band density, C + D + Z, 0 min (optical density/mm^2): 10.4 | Collagen Protection Assay, collagen band density, C + D + Z, 30 min (optical density/mm^2): 9.37 | Collagen Protection Assay, collagen band density, C + D + Z, 60 min (optical density/mm^2): 5.89 | Collagen Protection Assay, collagen band density, C + D + Z, 90 min (optical density/mm^2): 1.67 | Collagen Type I Degradation Rate (%), C + D + Z, 30 min: 9.49% | Collagen Type I Degradation Rate (%), C + D + Z, 60 min: 37.1% | Collagen Type I Degradation Rate (%), C + D + Z, 90 min: 71.6%
